# The nanobody polyreactivity screen of Harvey et al. (2022)
# Experiment: yeast display, Sf9 membrane polyspecificity reagent, FACS + sequencing; frameworks hold sequencing errors
# Procedure, shortened: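 Genes from sorted yeast were amplified by colony PCR, read by MiSeq 2 × 250 sequencing and filtered on CDR length. These cells carried a synthetic nanobody library in Saccharomyces cerevisiae BJ5465 and were sorted by FACS into low and high (top ~1%) gates on anti-HA and streptavidin fluorescence. Polyreactivity is labelled according to the gate of origin.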
row,Sequence,polyreactivity (PSR sort gate)
1,QVQLVESGGGLVQAGGSLRLSCAASGRTFGYNAMGWYRQAPGKERELVAAITIGGSTNYADSVNGRFTISRDNAKNTVYLQMNSLKPEDTAVYYCAAYDTLLYWVEFYYWGQGTQVTVSS,low polyreactivity
2,QVQLVESGGGLVQAGGSLRLSCAASGRTFGYNAMGWYRQAPGKERELVASISYRGGSTYYADSVKGRFTISRDNAKNTVYLQMNSLKPEDTAVYYCNKYYVWREYYWGQGTQVTVSS,high polyreactivity
3,QVQLVESGGGLVQAGGSLRLSCAASGRTFGYNAMGWYRQAPGKERELVATITWNGGRTYYADSVKGRFTISRDNAKNTVYLQMNSLKPEDTAVYYCAKGYPIIGRHGHWGQGTQVTVSS,high polyreactivity
4,QVQLVESGGGLVQAGGSLRLSCAASGRTFGYNAMGWYRQAPGKERQLVAAINWSGASTYYADSVKGRFTISRDNAKNTVYLQMNSLKPEDTAVYYCAADYSYIYGFDYWGQGTQVTVSS,low polyreactivity
5,QVQLVESGGGLVQAGGSLRLSCAASGRTFGYNAMGWYRQAPGKESELVAVISRGSRTYYADSVKGRFTISRDNAKNTVYLQMNSLKPEDTAVYYCAADYEYSGYGYWGQGTQVTVSS,high polyreactivity
6,QVQLVESGGGLVQAGGSLRLSCAASGRTFGYNTMGWYRQAPGKERELVAVITQGVDITYYADSVKGRFTISRDNAKNTVYLQMNSLKPEDTAVYYCNTAGQDAEYDYWGQGTQVTVSS,low polyreactivity
7,QVQLVESGGGLVQAGGSLRLSCAASGRTFGYYAMGWYRPAPGKEGELVAVITWSGDSTYYADSVKGRFTISRDNAKNTVYLQMNSLKPEDTAVYYCNADSGNAGTAYDDYDYWGQGTQVTVSS,low polyreactivity
8,QVQLVESGGGLVQAGGSLRLSCAASGRTFGYYAMGWYRPAPGKERELVAAISSNTDSTYYADSVKGRFTISRDNAKNTVYLQMNSLKPEDTAVYYCAAEAYSYYPGTYEDDYWGQGTQVTVSS,low polyreactivity
9,QVQLVESGGGLVQAGGSLRLSCAASGRTFGYYAMGWYRQAPGKERELFDAITGRTSRTYYADSVKGRFTISRDNAKNTVYLQMNSLKPEDTAVYYCAARYTRWRYNYKDYDYWGQGTQVTVSS,high polyreactivity
10,QVQLVESGGGLVQAGGSLRLSCAASGRTFGYYAMGWYRQAPGKERELVAAIRSTGSTNYADSVKGRFTISRDNAKNTVYLQMNSLKPDDTAVYYCNADPWWRFDYWGQGTQVTVSS,low polyreactivity
11,QVQLVESGGGLVQAGGSLRLSCAASGRTFGYYAMGWYRQAPGKERELVAAISGNGDNTYYADSVKGRFTISRDNAKNTVYLQMNCLIPEDTAVYYCSLWYRYKYAPYRLHGYWGQGTQVTVSS,high polyreactivity
12,QVQLVESGGGLVQAGGSLRLSCAASGRTFGYYAMGWYRQAPGKERELVAAITLSGGSTYYADSVKGRFTISRDNAKNTVYLQMNSLKPEDTAVYYCAAKWWHFYPYDYWGQGTQVTVSS,high polyreactivity
13,QVQLVESGGGLVQAGGSLRLSCAASGRTFGYYAMGWYRQAPGKERELVAGIRSSGGSTYYADSVKGRFTISRDNAKNTVYLQMNSLKAEDTAVYYCAARLRSYNYRYGYDYWGQGTQVTVSS,high polyreactivity
14,QVQLVESGGGLVQAGGSLRLSCAASGRTFGYYAMGWYRQAPGKERELVAPISWSGANTYYADSVKGRFTISRDNAKNTVYLQMNSLKPEDTAVYYCAAVRYYSYAYSIRYGYWGQGTQVTVSS,high polyreactivity
15,QVQLVESGGGLVQAGGSLRLSCAASGRTFGYYTMGWYRQAPGKEWELVATIRWSGGSTYADSVKGRFTISRDNAKNTVYLQLNSLKPEDTAVYYCYVDPSYYKILFNGFYYWGQGTQVTVSS,high polyreactivity
16,QVQLVESGGGLVQAGGSLRLSCAASGRTFGYYTMGWYRQSPGKERELVATISSDGTTNYADSVKGRFTISRDNAKNTVYLQMNSLKPEDTAVYYCNADFRLQYYYRIYDYWGQGTQVTVSS,low polyreactivity
17,QVQLVESGGGLVQAGGSLRLSCAASGRTFHAYVMGWYRQAPGKERELVADISSGGDTYADSVKGRFTISRDNAKNTVYLQMNSLKPEDTAVYYCAVDLIQDESRYWGQGTQVTVSS,low polyreactivity
18,QVQLVESGGGLVQAGGSLRLSCAASGRTFHRYAMGWYRQAPGKERELVATISRGGSTNYADSVKGRFTISRDNAQTTVYLQRNSLKTEETAVYYCAREYYGSWDSGGGGYWGQGTQVTVAS,high polyreactivity
19,QVQLVESGGGLVQAGGSLRLSCAASGRTFHSYAMGWYRPAPGKETELVAGISWGGTRTTYADSVTGRFTISRDNAKNTVYLQMNSLKPEDTAVYYCNAVYYALGRSPPDYGYWGQGTQVTVSS,low polyreactivity
20,QVQLVESGGGLVQAGGSLRLSCAASGRTFHWYTMGWYRLAPGKERELVAAISWSGTTTYYADSVKGRFTISRDNAKNTVYVQMNSLKPEDTAVYYCAFPTYNHNPVSAMTYYYWGQGTQVTVSS,low polyreactivity
21,QVQLVESGGGLVQAGGSLRLSCAASGRTFHYNVMGWYRQAPGKESELVAASTNTGGSTYYADSVKGRFTISRDNAKNTVYLQMNSLKPEDTAVYYCAAVIWGRRYGAYPYEYWGQGTQVTVSS,low polyreactivity
22,QVQLVESGGGLVQAGGSLRLSCAASGRTFHYYAMGWYRQAPGKERELVAAINFSGDNTYYADSVKGRFTISRDNAKNTVYLQLNSLKPEDTAVYYCAARREYARYKGYYYWGQGTQVTVSS,low polyreactivity

row,Sequence,polyreactivity (PSR sort gate)
1,QVQLVESGGGLVQAGGSLRLSCAASGRTFHYYAMVWYRQAPWKERELVAGITAGGSTYYADSVKGRFTISRDNAKNTVYLLMNSLKPEDNSGYYCAADRSYYGYGYWGKGTQVTVSS,low polyreactivity
2,QVQLVESGGGLVQAGGSLRLSCAASGRTFIFYAMGWYRQAPGKERELVAAISSSGSGTYYADSVKGRFTISRDNAKNTVYFQMNSLKPEDTAVYYCAADVVNSRRRPKYGYWGQGTQVTVSS,low polyreactivity
3,QVQLVESGGGLVQAGGSLRLSCAASGRTFIFYAMGWYRQAPGKERELVAAITYSGTSTYYADSVKGRFTISRDNAKNTVYLQMNSLKPEDTAVYYCASRPTPYRDDADEYWGQGTQVTVSS,low polyreactivity
4,QVQLVESGGGLVQAGGSLRLSCAASGRTFIGNAMGWYRQAPGKERELVAGIDSDGSTNYADSVKGRFTISRDNAKNTVYLLMNSLKPEDTAVYYCAAVQGYRFYEYYYWGQGTQVTVSW,low polyreactivity
5,QVQLVESGGGLVQAGGSLRLSCAASGRTFIGNAMGWYRQAPGKERELVAGISYRGGSTYYADSVKGRFTISRDNAKNTVYLQMNSLKPEDTAVYYCAAPGRGGYYYWGQGTQVTVSS,high polyreactivity
6,QVQLVESGGGLVQAGGSLRLSCAASGRTFIGYAMGWYIQAPGKERELVAAISPGGSTKYADSVKGRFTISRDNAKNTVYLQMNILKPEDTAVYYCNAYSQSWNFYGDGDYWGQGTQVTVSS,low polyreactivity
7,QVQLVESGGGLVQAGGSLRLSCAASGRTFIGYAMGWYRPAPGKERELVAGISWSGGSTYYADSVKGRFTISRDNAKNPVSLQMNSLKPEDTAVYYCAARGRWSTEYGYWGQGTQVTVSS,low polyreactivity
8,QVQLVESGGGLVQAGGSLRLSCAASGRTFIHYAMGWSRQAPGKERELVAAISRRGGSTYYADSVKGRFTISRDNAKNTVYLQMNSLKPEDTAVYYCAARLLGITGRTDSGAEGDYWGQGTQVTVSS,high polyreactivity
9,QVQLVESGGGLVQAGGSLRLSCAASGRTFIINTMGWSRQATGTERELVAAISKNGATTNYADSVKGRFTISRDNAKNTVYLQMNSLKPEDTAVYYCNARYSGYLRLDYWGQGTQVTVSS,low polyreactivity
10,QVQLVESGGGLVQAGGSLRLSCAASGRTFIINTMGWYRQAPGKERELVAAISKNGATTNYADSVKGRFTISRDNAKNTVYLQMNSLKPEDTAVYYCAKKASYWWGYEYWGQGTQVTVSS,low polyreactivity
11,QVQLVESGGGLVQAGGSLRLSCAASGRTFIPYAMAWYRQAPGKEMELVAAISTTAGTTYYADSVKGRFTISRDNAKNTVYLQMNSLKPEDTAVYYCAAEGYGSFFVAMDYWGQGTQVTVSS,high polyreactivity
12,QVQLVESGGGLVQAGGSLRLSCAASGRTFIRYTMGWYRPAPGKERELVAAITSTGRTYYADSVKGRFTISRDNAKNTVYLQMNSLKPEDTAVYYCAAKQSWEGYDYWGQGTQVTVSS,low polyreactivity
13,QVQLVESGGGLVQAGGSLRLSCAASGRTFISNAMGWYRQAPGKERELVATINSGGSTNYADSVKGRFTISRDNAKNTVYLQMNSLKPEDTAVYYCARRVRYKHYDYWGQGTQVTVSS,high polyreactivity
14,QVQLVESGGGLVQAGGSLRLSCAASGRTFISNAMGWYRQAPVKERELVAAISRSGGSTYYADSVKGRFTISRDNAKNTVYLQMNSLKPEDTAVYYCAATGKQWRTSYDYWGQGTQVTVSS,high polyreactivity
15,QVQLVESGGGLVQAGGSLRLSCAASGRTFISYAMGWYRQAPGKERELVAAISWSGGRTSYADSVKGRFTISRDNAKNTVYLHMNSLKPEDTAVYYCNAQYNSWFAIKDYDYWGQGTQVTVSS,low polyreactivity
16,QVQLVESGGGLVQAGGSLRLSCAASGRTFISYAMGWYRQAPGKESELVAAISSSGGSTYYADSVKGRFTISRDNAKNTVYLQMNSLKPEDTEVYYCNAAKVRRDPAWRLLDYWGQGTQVTVSS,low polyreactivity
17,QVQLVESGGGLVQAGGSLRLSCAASGRTFITYAMGWYRQAPGKERELVAAISSGGGRTYYADSVKGRFTISRDNAKNTVYLQMNSLKPEDTAVYYCAALYVYPLTYKPSRYPYDYWGQGTQVTVSS,high polyreactivity
18,QVQLVESGGGLVQAGGSLRLSCAASGRTFIVNAMAWYRQAPGKERELVAAISSGGSTNYADSVKGRFTISRDNAKNTVYLQMNSLKPEDTAVYYCASRLRGPRSYWSWYGYWGQGTQVTVSS,high polyreactivity
19,QVQLVESGGGLVQAGGSLRLSCAASGRTFIVNAMGWYRQAPGKVRELVAAITKGARTYYADSVKGRFTISRDNAKNTVYLQRNSLKPEDTAVYYCNATRLGGNGTRHYYWGQGTQVTVSS,high polyreactivity
20,QVQLVESGGGLVQAGGSLRLSCAASGRTFIVYAMGWYRQAPGTERELVAGITRGSTTYADSVKGRFTISRDNATNTVYLQMNSLKPEDTAVYYCAARSSRRGPISEGDYWGQGTHVTVSS,high polyreactivity
21,QVQLVESGGGLVQAGGSLRLSCAASGRTFKFYAMGWYRQAPGKERELVATITSGGSTYYADSVKGRFTISRDNAKNTVYLQMNSLIPEDTAVSYCNAAKTYPDVYEYDYWGQGTQVTVSS,high polyreactivity
